# T1: human β2 (hβ2) (human) (UniProt Q9Y691)
# T1 sequence: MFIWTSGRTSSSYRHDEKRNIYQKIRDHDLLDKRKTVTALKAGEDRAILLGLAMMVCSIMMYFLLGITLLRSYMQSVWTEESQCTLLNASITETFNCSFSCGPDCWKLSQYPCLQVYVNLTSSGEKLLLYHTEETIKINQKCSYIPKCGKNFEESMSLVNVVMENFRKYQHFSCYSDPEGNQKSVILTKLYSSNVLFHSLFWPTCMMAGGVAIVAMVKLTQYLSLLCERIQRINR
# Tests used:
# [1] = molecular target: mouse Slo1 (mSlo1) α-subunit (mouse) (UniProt Q08460)
# [2] = molecular target: T1, human β2 (hβ2) (human)
# [3] = molecular target: T1, human β2 (hβ2) (human); remark: listed apart in the source
# [4] = molecular target: β3-Gρ (full-length human BK β3a subunit with C-terminal eGFP-ρ1D4) (human); test: pull-down + SEC; plasmid weight ratio 1:0.2:1.8 (TR2)
# [5] = molecular target: hSlo1EM-TS (modified human Slo1 BK α subunit with a C-terminal twin-strep tag) (human) (UniProt Q12791); test: pull-down + SEC; HEK293F co-transfected with hSlo1EM-TS, β2-RF and β3-Gρ at plasmid weight ratio 1:1:1 (TR1); digitonin extract; Slo1 held on streptactin XT resin, eluted with 50 mM biotin; eluate read by dual-colour FSEC (Superose 6 Increase; eGFP and mCherry)
# [6] = molecular target: hSlo1EM-TS (modified human Slo1 BK α subunit with a C-terminal twin-strep tag) (human) (UniProt Q12791); test: pull-down + SEC; as a3 but plasmid weight ratio 1:0.2:1.8 (TR2)
# [7] = molecular target: β3-Gρ (full-length human BK β3a subunit with C-terminal eGFP-ρ1D4) (human); test: pull-down + SEC; TR1 (1:1:1); three-step affinity purification: streptactin XT (Slo1), then anti-FLAG M2 resin (β2) and anti-ρ1D4 resin (β3) one after the other, in either order; eluates, input and flow-through read by dual-colour FSEC
# [8] = molecular target: hSlo1EM-TS (modified human Slo1 BK α subunit with a C-terminal twin-strep tag) (human) (UniProt Q12791); test: as above
# [9] = molecular target: hSlo1EM-TS (modified human Slo1 BK α subunit with a C-terminal twin-strep tag) (human) (UniProt Q12791); test: pull-down + SEC; as a1 but plasmid weight ratio 1:0.2:1.8 (TR2)
# hSlo1EM-TS (modified human Slo1 BK α subunit with a C-terminal twin-strep tag) (human), sequence (Q12791 whole entry): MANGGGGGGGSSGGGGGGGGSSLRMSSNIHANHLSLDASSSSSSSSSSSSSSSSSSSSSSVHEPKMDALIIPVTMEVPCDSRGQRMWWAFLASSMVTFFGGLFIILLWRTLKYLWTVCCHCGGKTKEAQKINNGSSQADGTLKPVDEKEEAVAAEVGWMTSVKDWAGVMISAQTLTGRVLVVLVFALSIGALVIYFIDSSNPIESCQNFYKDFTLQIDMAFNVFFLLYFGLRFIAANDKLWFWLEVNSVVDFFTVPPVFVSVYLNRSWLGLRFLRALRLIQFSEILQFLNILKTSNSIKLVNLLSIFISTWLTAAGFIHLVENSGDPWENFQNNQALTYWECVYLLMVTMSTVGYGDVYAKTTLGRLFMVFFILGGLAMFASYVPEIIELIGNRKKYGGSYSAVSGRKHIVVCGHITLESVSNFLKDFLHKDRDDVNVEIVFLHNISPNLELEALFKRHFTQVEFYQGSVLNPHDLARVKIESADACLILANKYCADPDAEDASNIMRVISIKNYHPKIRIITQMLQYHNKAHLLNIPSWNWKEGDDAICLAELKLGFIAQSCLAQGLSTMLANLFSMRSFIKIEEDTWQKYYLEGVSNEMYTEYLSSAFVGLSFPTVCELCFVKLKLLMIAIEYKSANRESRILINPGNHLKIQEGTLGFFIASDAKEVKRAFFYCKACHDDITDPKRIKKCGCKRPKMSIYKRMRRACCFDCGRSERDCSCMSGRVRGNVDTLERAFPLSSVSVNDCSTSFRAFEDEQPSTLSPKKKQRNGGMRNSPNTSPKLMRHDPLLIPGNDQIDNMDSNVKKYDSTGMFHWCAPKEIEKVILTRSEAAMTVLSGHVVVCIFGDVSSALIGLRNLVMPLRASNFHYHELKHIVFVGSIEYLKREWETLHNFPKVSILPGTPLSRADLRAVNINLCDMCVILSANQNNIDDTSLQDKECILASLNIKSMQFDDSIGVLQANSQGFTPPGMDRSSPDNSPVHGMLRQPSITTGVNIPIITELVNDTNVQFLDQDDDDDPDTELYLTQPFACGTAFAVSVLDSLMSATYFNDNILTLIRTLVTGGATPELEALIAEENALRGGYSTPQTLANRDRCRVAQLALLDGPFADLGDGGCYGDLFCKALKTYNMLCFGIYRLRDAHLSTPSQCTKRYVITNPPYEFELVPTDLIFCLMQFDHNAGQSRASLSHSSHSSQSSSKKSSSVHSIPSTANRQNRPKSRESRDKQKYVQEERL
# mouse Slo1 (mSlo1) α-subunit (mouse), sequence (Q08460 whole entry): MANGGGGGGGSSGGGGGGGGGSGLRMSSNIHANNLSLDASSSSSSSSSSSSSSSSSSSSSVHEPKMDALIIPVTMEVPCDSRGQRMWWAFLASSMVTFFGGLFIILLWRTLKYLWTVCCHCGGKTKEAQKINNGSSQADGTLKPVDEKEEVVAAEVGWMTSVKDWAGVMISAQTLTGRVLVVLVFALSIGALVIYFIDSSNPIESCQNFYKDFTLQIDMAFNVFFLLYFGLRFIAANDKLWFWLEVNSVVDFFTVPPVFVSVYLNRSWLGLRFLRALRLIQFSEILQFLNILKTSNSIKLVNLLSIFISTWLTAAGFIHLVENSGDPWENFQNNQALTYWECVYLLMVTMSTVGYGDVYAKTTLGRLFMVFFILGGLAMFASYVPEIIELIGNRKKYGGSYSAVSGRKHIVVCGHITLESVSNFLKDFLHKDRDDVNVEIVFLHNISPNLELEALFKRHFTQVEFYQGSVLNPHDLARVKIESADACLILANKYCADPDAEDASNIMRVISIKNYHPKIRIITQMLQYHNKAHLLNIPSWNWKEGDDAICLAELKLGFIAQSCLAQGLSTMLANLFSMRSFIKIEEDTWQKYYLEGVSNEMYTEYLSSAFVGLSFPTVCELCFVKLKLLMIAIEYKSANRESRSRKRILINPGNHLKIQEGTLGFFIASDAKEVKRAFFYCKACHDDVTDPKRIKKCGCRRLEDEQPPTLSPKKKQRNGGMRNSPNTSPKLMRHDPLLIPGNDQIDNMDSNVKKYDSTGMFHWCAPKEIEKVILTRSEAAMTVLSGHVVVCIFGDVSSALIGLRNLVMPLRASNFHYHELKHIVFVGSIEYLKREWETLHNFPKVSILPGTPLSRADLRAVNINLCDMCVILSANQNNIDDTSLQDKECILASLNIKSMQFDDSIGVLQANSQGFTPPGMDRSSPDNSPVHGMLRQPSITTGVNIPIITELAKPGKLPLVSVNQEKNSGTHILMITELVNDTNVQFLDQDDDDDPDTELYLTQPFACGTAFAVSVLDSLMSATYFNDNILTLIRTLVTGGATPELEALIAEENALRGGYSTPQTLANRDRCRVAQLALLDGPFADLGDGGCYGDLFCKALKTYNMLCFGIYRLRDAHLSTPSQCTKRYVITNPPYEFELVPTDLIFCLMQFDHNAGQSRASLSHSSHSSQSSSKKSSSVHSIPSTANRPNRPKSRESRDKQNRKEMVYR
binder,measurement,setting,value
human β2 (hβ2) (natural protein) MFIWTSGRTSSSYRHDEKRNIYQKIRDHDLLDKRKTVTALKAGEDRAILLGLAMMVCSIMMYFLLGITLLRSYMQSVWTEESQCTLLNASITETFNCSFSCGPDCWKLSQYPCLQVYVNLTSSGEKLLLYHTEETIKINQKCSYIPKCGKNFEESMSLVNVVMENFRKYQHFSCYSDPEGNQKSVILTKLYSSNVLFHSLFWPTCMMAGGVAIVAMVKLTQYLSLLCERIQRINR,"time course of trypsin removal of inactivation of α+β2 currents in excised oocyte patches, described by I(t)=(1-exp(-t/τ))^4; β subunits per channel (β subunits per channel)",[1],4
mouse β3a (mβ3a) (natural protein) MQPFSIPVQITLQGGRRRQGRTALPASGKINGDPLKVHPKLPSSAGEDRAMLLGVAMMASSVLMFFLLGTTVLKPFMLRSPREESNCTTVHTHIVDDGLDFSFTCEGSCQDHGRSPCLQVFVNLSHSGQKVLLHYDDEAIRTNPKCFYTPKCHGDRDDLLNSVLDIKEFFDHNNGTFPCFYSPDGPLGVVLRKSGHKVVFHCLFWPLLTLLGGALIVGLVRLTQHLSFQCEQYSTVVRA,"time course of trypsin removal of inactivation of α+β3a currents in excised oocyte patches, described by I(t)=(1-exp(-t/τ))^4; β subunits per channel (β subunits per channel)",[1],4
same,"single-channel recordings from oocytes with BK α and 1:8 β2:β3a: of 16 patches with β3a-type tail openings, those that also show β2-like recovery from inactivation without reopening (of 16 patches)",[2],14
same,"global fit of the trypsin digestion time courses of BK currents (mSlo1 with β2:β3a injection ratios 1:4 to 1:24, β2 alone, β3a alone): random mixing model against segregated model (fold lower sum of squares)",[3],2.5
β2-RF (full-length human BK β2 subunit with C-terminal mCherry-FLAG) (natural protein) MFIWTSGRTSSSYRHDEKRNIYQKIRDHDLLDKRKTVTALKAGEDRAILLGLAMMVCSIMMYFLLGITLLRSYMQSVWTEESQCTLLNASITETFNCSFSCGPDCWKLSQYPCLQVYVNLTSSGEKLLLYHTEETIKINQKCSYIPKCGKNFEESMSLVNVVMENFRKYQHFSCYSDPEGNQKSVILTKLYSSNVLFHSLFWPTCMMAGGVAIVAMVKLTQYLSLLCERIQRINR,percent of Slo1–β3 complexes that are ternary (hold β2 too),[4],37%
same,molar ratio of β2-RF to β3-Gρ affiliated with Slo1,[5],7.32 mol/mol
same,stoichiometry N (β2 per 4 Slo1),[6],1.9
same,percent of Slo1–β3 complexes that are ternary (hold β2 too),[7],49%
same,stoichiometry N (β2 per 4 Slo1),[8],2.8
same,molar ratio of β2-RF to β3-Gρ affiliated with Slo1,[9],1.08 mol/mol
